The values below come from US20090257987A1, “Method of generating dopamine-secreting cells” (Ramot At Tel Aviv University Ltd., priority 2008, published 2009).

Assay type in all cases: cell-based
Experiment [1] concerns human MSCs. Put plainly: HPLC analysis of dopamine secretion. On the procedure: Induction of differentiation: The differentiation protocol was composed of 2 steps. In step 1, cells were transferred to serum-free medium (DMEM) supplemented with 2 mM glutamine, 100 μg/ml streptomycin, 100 units/ml penicillin, 12.5 units/ml nystatin (Biological Industries), N2 supplement (Invitrogen, New Haven, Conn.) and 20 ng/ml fibroblast growth factor 2 and epidermal growth factor (both from R&D Systems, Minneapolis, Minn.) for 48-72 hours. In step 2, the medium was changed to Basic induction medium containing Neurobasal, B27 (both from Invitrogen), in addition to 1 mM dibutyryl cyclic AMP (dbcAMP), 3-isobutyl-1-methyl-xanthine (IBMX), and 200 μM ascorbic acid (all from Sigma, St Louis, Mo.). The following factors were added to the Basic induction medium in different combinations: brain-derived neurotrophic factor (BDNF; 50 ng/ml), glial-derived neurotrophic factor (GDNF;10 ng/ml), neurturin (100 ng/ml), neurotrophin 3 (NT3; 50 ng/ml), and fibroblast growth factor 8 (FGF8; 100 ng/ml (all from Cytolab, Rehovot, Israel); transforming growth factor β3 (TGFβ3; 2 ng/ml), sonic hedgehog (Shh; 500 ng/ml, both from R&D); estrogen (0.1 μM, Sigma); and all-trans-retinoic acid (RA; 0.1 μM, Sigma). High performance liquid chromotography (HPLC): Reverse-phase HPLC coupled with an electrochemical detector (ECD) was used to measure dopamine levels. […]

The subject of experiment [2] is human MSCs. Briefly: Bright-light microscopy of cell morphology after induction. Conditions: from MSC fibroblast shape. The procedure:
(§1) Induction of differentiation: The differentiation protocol was composed of 2 steps. In step 1, cells were transferred to serum-free medium (DMEM) supplemented with 2 mM glutamine, 100 μg/ml streptomycin, 100 units/ml penicillin, 12.5 units/ml nystatin (Biological Industries), N2 supplement (Invitrogen, New Haven, Conn.) and 20 ng/ml fibroblast growth factor 2 and epidermal growth factor (both from R&D Systems, Minneapolis, Minn.) for 48-72 hours. In step 2, the medium was changed to Basic induction medium containing Neurobasal, B27 (both from Invitrogen), in addition to 1 mM dibutyryl cyclic AMP (dbcAMP), 3-isobutyl-1-methyl-xanthine (IBMX), and 200 μM ascorbic acid (all from Sigma, St Louis, Mo.). The following factors were added to the Basic induction medium in different combinations: brain-derived neurotrophic factor (BDNF; 50 ng/ml), glial-derived neurotrophic factor (GDNF;10 ng/ml), neurturin (100 ng/ml), neurotrophin 3 (NT3; 50 ng/ml), and fibroblast growth factor 8 (FGF8; 100 ng/ml (all from Cytolab, Rehovot, Israel); transforming growth factor β3 (TGFβ3; 2 ng/ml), sonic hedgehog (Shh; 500 ng/ml, both from R&D); estrogen (0.1 μM, Sigma); and all-trans-retinoic acid (RA; 0.1 μM, Sigma).

The test system of experiment [3] is human MSCs. Put plainly: Western blot analysis of TH protein expression after differentiation protocols. The note with it: result in words. The procedure:
MSC isolation, culture, and characterization: Fresh bone marrow aspirates harvested from the iliac crests of adult donors (age 19-76) were diluted with Hanks' balanced salt solution. Mononuclear cells were isolated by centrifugation in Unisep-Maxi tubes (Novamed, Jerusalem, Israel) by density gradient. The cells were then plated in Dulbecco's Modified Eagle's Medium (DMEM) supplemented with 15% fetal bovine serum (FBS), 2 mM glutamine, 100 μg/ml streptomycin, 100 units/ml penicillin, 12.5 units/ml nystatin (Biological Industries, Beit HaEmek, Israel) in polystyrene plastic 75-cm^2 tissue-culture flasks. After 24 hours, nonadherent cells were removed. The medium was changed every 3-4 days. Adherent cells were cultured to 70%-90% confluence and reseeded at a density of 5,000-10,000 cells/cm^2. The cells were maintained at 37° C. in a humidified 5% CO2 incubator. The MSCs were characterized for their cell-surface phenotype and their mesenchymal differentiation capacity, as previously described (Blondheim er al., 2006, Stem Cells Dev 15:141-164).
as §1
Western blot: Total protein was extracted by suspending the harvested cells in lysis buffer containing 10 mM Tris base (U.S. Biochemical Corporation, Cleveland, Ohio), 5 mM EDTA (Merck, Whitehouse Station, N.J.), 140 mM sodium chloride (NaCl; BioLab, Jerusalem, Israel), 10 mM sodium fluoride (NaF; Sigma), 0.5% NP 40 (U.S. Biochemical Corporation), and 1 μM phenylmethylsulfonyl fluoride (PMSF; Sigma). Following incubation on ice for 30 minutes, the mixture was centrifuged and the supernatants were collected. Protein content was determined by the BCA protein assay kit (Pierce, Rockford, Ill.). Twenty-five micrograms of protein from each sample were subjected to sodium dodecyl-sulfate (SDS)-polyacrylamide gel electrophoresis (PAGE) (12.5% acrylamide), followed by electrophoretic transfer to nitrocellulose membrane (Schleicher & Schuell, Dassel, Germany). Membranes were probed by mouse anti-TH (1:10,000, Sigma) and mouse anti β-actin (1:10,000, Chemicon, Billerica, Mass.) and then by goat anti-mouse horseradish peroxidase conjugated antibody (1:10,000) (Jackson, West Grove, Pa.) and rabbit anti-emerin (1:5,000, Santa Cruz Biotechnology, Santa Cruz, Calif.), followed by goat anti-rabbit horseradish peroxidase conjugated secondary antibody (1:10,000, Sigma). Adequate controls included HeLa cells (ATCC, Manassas, Va.) as negative control and neuroblastoma M17 cells (BE (2)-M17, ATCC) as positive control. Proteins of interest were detected using the enhanced Super Signal® chemiluminescent detection kit (Pierce).

B1: brain-derived neurotrophic factor (protein, UniProt P23560 19-247, looked up)
Neurotrophic factor BDNF …: APMKEANIRGQGGLAYPGVRTHGTLESVNGPKAGSRGLTSLADTFEHVIEELLDEDQKVRPNEENNKDADLYTSRVMLSSQVPLEPPLLFLLEEYKNYLDAANMSMRVRRHSDPARRGELSVCDSISEWVTAADKKTAVDMSGGTVTVLEKVPVSKGQLKQYFYETKCNPMGYTKEGCRGIDKRHWNSQCRTTQSYVRALTMDSKKRIGWRFIRIDTSCVCTLTIKRGR
notes: brain-derived neurotrophic factor (50 ng/ml) added to the Basic induction medium
With B1, in the experiment with human MSCs [1] (56 mM KCL in HBSS for 30 minutes), the “dopamine secreted to the depolarization buffer (mean)” value is recorded as 1127.86 pg/ml of dopamine per 10^6 cells. The “dopamine secreted to the conditioned media (mean)” value with human MSCs [1] (differentiation medium) is 673.69 pg/ml of dopamine per 10^6 cells. In the experiment on human MSCs [2], the cell morphology entry is “neuron-like appearance”. The “TH protein expression level normalized to actin” value in the experiment with human MSCs [3] (listed as BDNF) is “directly affected the TH protein expression level”; with human MSCs [3] (listed as BDNF alone) it was “significant results”.
